Results from patent US20020143164A1, “Ras activator nucleic acid molecules, polypeptides and methods of use” (priority 1999, published 2002).

Columns and labels:
Ras = Ras activation assay in living cells, GRF4 and deletion mutants expressed in HEK-293T cells; format: cell-based, human; settings: HEK-293T cells treated with 8-Br-cAMP
Method: HEK-293T cells were transfected with vector alone, GRF4 (WT), GRF4 lacking its cNMP-BD (ΔcNMP-BD) or its CDC25 domain (ΔCDC25), and then treated (or not) with 8-Br-cAMP. Cell lysates were then incubated with GST-Raf1-RBD to precipitate active Ras, and immunobloited with anti Ras antibodies as above (upper panel). Lower panels are controls for total endogenous Ras and transfected GRF4 or its mutants.
Flag, HA or myc tags was added to the N-terminus of full length GRF4 using PCR, and subcloned into the mammalian expression vector pCMV5 (Invitrogen). Mutants GRF4 with deletion of the CDC25 domain (residue 711-1007, GRF4DCDC25 or DCDC25 for short), the cNMP-BD (residue 134-254, DcNMP-BD), the PLPF motif in the PDZ domain (residue 396-399, -PLPF), or bearing mutations in the PDZ-binding motif (SAV to AAA), were generated using PCR. The GST-GRF4-cNMP-BD (residue 101-303) and GST-Carboxy-terminus (residue 1348-1499) were PCR-generated and cloned into pGEX-2T ( Pharmacia). The latter construct was used to generate a fusion protein (GST-GRF4C terminus) which was used to immunize rabbits for the generation of polyclonal anti GRF4 antibodies.
HEK-293T cells were transfected as above, serum starved overnight and then subjected to various treatments, as described in the text. […] GTP in the lysates was determined using activation specific probes as described. Briefly, to determined the levels of active Ras (Ras-GTP) in cell, sepharose-bound GST fusion protein of the Ras-binding domain (RBD) of Raf-1 (GST-Raf1-RBD; Upstate Biotechnology Inc.) was used to precipitate Ras-GTP from cell lysates, and the amount of Ras-GTP determined by immunoblotting with anti Ras antibodies (Quality Biotech). Similarly, to determine the level of Rap1-GTP in cell lysates, sepharose-bound GST fusion proteins of the Rap1-binding domain of RaIGDS (GST-RaIGDS-RBD) were used to precipitate Rap1-GTP, which was then detected on a Western blot using anti-Rap1 antibodies (Transduction Lab).

GRF4 = target: T1, GRF4 (Homo sapiens, UniProt Q9Y4G8, DEL134-254); assay: Activation of Ras and MAPK by cNMP analogues in GRF4-transfected HEK-293T cells; format: cell-based; settings: HEK-293T cells
T1 construct: Flag, HA or myc tags was added to the N-terminus of full length GRF4 using PCR; expressed in transfected cells; host or cells: HEK-293T
T1 sequence (Q9Y4G8 with tags, fused parts or gaps DEL134-254): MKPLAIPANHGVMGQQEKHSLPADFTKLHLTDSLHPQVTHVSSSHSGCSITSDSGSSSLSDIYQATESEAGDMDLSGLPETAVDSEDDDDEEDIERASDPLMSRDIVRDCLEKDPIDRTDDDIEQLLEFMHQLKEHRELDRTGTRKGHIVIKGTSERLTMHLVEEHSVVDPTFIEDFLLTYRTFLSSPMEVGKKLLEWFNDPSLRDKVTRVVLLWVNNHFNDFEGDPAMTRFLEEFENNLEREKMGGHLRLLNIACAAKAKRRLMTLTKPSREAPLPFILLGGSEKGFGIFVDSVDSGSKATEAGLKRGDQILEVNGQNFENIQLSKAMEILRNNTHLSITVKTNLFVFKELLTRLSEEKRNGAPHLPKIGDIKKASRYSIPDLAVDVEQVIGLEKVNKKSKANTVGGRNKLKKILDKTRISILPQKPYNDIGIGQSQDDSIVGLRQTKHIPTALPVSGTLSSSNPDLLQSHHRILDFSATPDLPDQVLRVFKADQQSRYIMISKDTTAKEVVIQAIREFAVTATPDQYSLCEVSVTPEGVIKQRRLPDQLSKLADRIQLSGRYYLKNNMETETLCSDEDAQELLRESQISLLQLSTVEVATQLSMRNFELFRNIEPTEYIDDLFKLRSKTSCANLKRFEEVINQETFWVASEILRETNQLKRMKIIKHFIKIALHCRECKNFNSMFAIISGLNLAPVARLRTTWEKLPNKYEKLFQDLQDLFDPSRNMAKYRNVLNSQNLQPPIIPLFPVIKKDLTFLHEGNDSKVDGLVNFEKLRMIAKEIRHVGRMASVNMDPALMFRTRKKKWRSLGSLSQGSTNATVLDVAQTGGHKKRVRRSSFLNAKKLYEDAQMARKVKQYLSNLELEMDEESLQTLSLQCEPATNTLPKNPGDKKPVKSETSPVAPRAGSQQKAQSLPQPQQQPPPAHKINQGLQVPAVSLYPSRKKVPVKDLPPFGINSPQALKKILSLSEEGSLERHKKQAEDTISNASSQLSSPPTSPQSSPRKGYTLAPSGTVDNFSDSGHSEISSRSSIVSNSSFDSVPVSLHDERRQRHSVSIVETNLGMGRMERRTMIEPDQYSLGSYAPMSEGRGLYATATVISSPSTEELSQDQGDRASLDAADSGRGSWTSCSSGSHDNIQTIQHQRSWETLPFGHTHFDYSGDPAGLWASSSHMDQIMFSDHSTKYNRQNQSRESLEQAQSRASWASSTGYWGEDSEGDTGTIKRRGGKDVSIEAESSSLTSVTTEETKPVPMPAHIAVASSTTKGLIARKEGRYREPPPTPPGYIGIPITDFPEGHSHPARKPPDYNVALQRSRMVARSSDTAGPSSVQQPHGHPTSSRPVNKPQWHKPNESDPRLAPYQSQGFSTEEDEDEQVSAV
Method: The small GTPase Ras controls the MAPK pathway and exerts its effects on cellular processes primarily through this pathway. MAPK is a downstream kinase of Ras and thus, Ras activation leads to MAPK activation (FIG. 6A). Therefore, we show the GRF4 effects on MAPK activation using assays in which levels of active MAPK in cells is determined using antibodies recognizing phosphorylated (active) MAPK.

B1: ΔcNMP-BD: Mutant GRF4 with deletion of the cNMP-BD (residue 134-254) (protein)
chain: MKPLAIPANHGVMGQQEKHSLPADFTKLHLTDSLHPQVTHVSSSHSGCSITSDSGSSSLSDIYQATESEAGDMDLSGLPETAVDSEDDDDEEDIERASDPLMSRDIVRDCLEKDPIDRTDDDIEQLLEFMHQLKEHRELDRTGTRKGHIVIKGTSERLTMHLVEEHSVVDPTFIEDFLLTYRTFLSSPMEVGKKLLEWFNDPSLRDKVTRVVLLWVNNHFNDFEGDPAMTRFLEEFENNLEREKMGGHLRLLNIACAAKAKRRLMTLTKPSREAPLPFILLGGSEKGFGIFVDSVDSGSKATEAGLKRGDQILEVNGQNFENIQLSKAMEILRNNTHLSITVKTNLFVFKELLTRLSEEKRNGAPHLPKIGDIKKASRYSIPDLAVDVEQVIGLEKVNKKSKANTVGGRNKLKKILDKTRISILPQKPYNDIGIGQSQDDSIVGLRQTKHIPTALPVSGTLSSSNPDLLQSHHRILDFSATPDLPDQVLRVFKADQQSRYIMISKDTTAKEVVIQAIREFAVTATPDQYSLCEVSVTPEGVIKQRRLPDQLSKLADRIQLSGRYYLKNNMETETLCSDEDAQELLRESQISLLQLSTVEVATQLSMRNFELFRNIEPTEYIDDLFKLRSKTSCANLKRFEEVINQETFWVASEILRETNQLKRMKIIKHFIKIALHCRECKNFNSMFAIISGLNLAPVARLRTTWEKLPNKYEKLFQDLQDLFDPSRNMAKYRNVLNSQNLQPPIIPLFPVIKKDLTFLHEGNDSKVDGLVNFEKLRMIAKEIRHVGRMASVNMDPALMFRTRKKKWRSLGSLSQGSTNATVLDVAQTGGHKKRVRRSSFLNAKKLYEDAQMARKVKQYLSNLELEMDEESLQTLSLQCEPATNTLPKNPGDKKPVKSETSPVAPRAGSQQKAQSLPQPQQQPPPAHKINQGLQVPAVSLYPSRKKVPVKDLPPFGINSPQALKKILSLSEEGSLERHKKQAEDTISNASSQLSSPPTSPQSSPRKGYTLAPSGTVDNFSDSGHSEISSRSSIVSNSSFDSVPVSLHDERRQRHSVSIVETNLGMGRMERRTMIEPDQYSLGSYAPMSEGRGLYATATVISSPSTEELSQDQGDRASLDAADSGRGSWTSCSSGSHDNIQTIQHQRSWETLPFGHTHFDYSGDPAGLWASSSHMDQIMFSDHSTKYNRQNQSRESLEQAQSRASWASSTGYWGEDSEGDTGTIKRRGGKDVSIEAESSSLTSVTTEETKPVPMPAHIAVASSTTKGLIARKEGRYREPPPTPPGYIGIPITDFPEGHSHPARKPPDYNVALQRSRMVARSSDTAGPSSVQQPHGHPTSSRPVNKPQWHKPNESDPRLAPYQSQGFSTEEDEDEQVSAV
8-Br-cAMP-mediated activation of Ras via the construct, compared with wt-GRF4 (Ras): almost abolished | Activation of Ras and MAPK by the expressed mutant (GRF4): constitutively
